Test results published in US12286661B2, “Methods for making high intensity sweeteners” (Firmenich Incorporated, priority 2018, dated 2025).

Tested on: mogrol
Test: Mogroside IA and/or IE production from mogrol by glycosyltransferases expressed in S. cerevisiae, LCMS
Assay type: cell-based
Conditions: 10 μM mogrol, 2-4 days at 30° C.; identified by LCMS
Description: DNA was obtained through gene synthesis either through Genescript, IDT, or Genewiz. For some of the cucurbitadienol synthases, cDNA or genomic DNA was obtained through 10-60 day old seedlings followed by PCR amplification using specific and degenerate primers. DNA was cloned through standard molecular biology techniques or through yeast gap repair cloning (Joska et al., 2014) into one of the following overexpression vectors: pESC-Ura, pESC-His, or pESC-LEU. Gene expression was regulated by one of the following promoters; Gall, Gal10, Tef1, or GDS. Yeast transformation was performed using Zymo Yeast Transformation Kit II. Yeast strains were grown in standard media (YPD or SC) containing the appropriate selection with 2% glucose or 2% galactose for induction of heterologous genes. Yeast strains were grown in shake flask or 96 well plates at 30° ° C., 140-250 rpm. When indicated, lanosterol synthase inhibitor, Ro 48-8071 (Cayman Chemicals) was added (50 ug/ml). Yeast samples producing mogrol precursors, mogrol and mogrosides were processed through one of the following: • Cucurbitadienol and 11-OH Cucurbitadienol: Samples cell pellets were lysed (Yeast Buster) followed by ethyl acetate extraction, drying, and resuspension in methanol. • ·Mogrol and Mogrosides: Samples cell pellets were lysed in 50% ETOH, incubated at 80° C. for 30 min, filtered, dried and resuspended in MeOH for LCMS screening.
For analyzing Mogroside IIIE & Compound 1, the LCMS method included the use of Fluoro-phenyl 2.1×100 mm column, gradient 15 to 30% B for 6 minutes, at flow rate of 0.55 ml/min. For analyzing yeast production of mogroside I during enzyme screening, the LCMS method used a Phenomenex Kinetex Polar C18, 4.6×100 mm, 2.6 μm column, and a gradient of 25% to 55% B over 3 minutes, and 100% B at 3.5 minutes with a flow rate of 1.5 ml/min. Detection by ESI source negative mode single ion monitoring of 683.4 for mogroside I and 799.4 for mogroside II.
Various glycosyltransferase proteins were expressed in S. cerevisiae grown in the presence of 10 μM mogrol for 2-4 days at 30° C., 140-250 rpm in either shake flask or 96 well plates. Glycosyltransferases leading to production of Mogroside IA (glycosylation of C24-OH position) and/or Mogroside IE (glycosylation of C3-OH position) are provided in Table 6. DNA and protein sequences for the enzymes are provided in SEQ IDs 1050-1071 (see Table 1).

B1: SEQ ID NO. 1070/1071: glycosyltransferase (DNA/protein SEQ ID NO) producing mogroside I from mogrol (protein, listed as Barbarea vulgaris)
chain: MVSEITHKSYPLHFVLFPFMAQGHMIPMVDIARLLAQRGVKITIVTTPHNAARFENVLNRAIESGLPISIVQVKLPSQEAGLPEGNETFDSLVSMELLVPFFKSVNMLEEPVQKLFEEMSPQPSCIISDFCLPYTSKIAKKFNIPKILFHGMCCFCLLCMHVLRKNHEIVENLKSDKEHFVVPYFPDRVEFTRPQVPVATYVPGDWHEITGDMVEADKTSYGVIVNTCQELEPAYANDYKEARSGKAWTIGPVSLCNKVGADKAERGNKADIDQDECLKWLNSKEEGSVLYVCLGSICNLPLSQLKELGLGLEESQRPFIWVIRGWEKNKELLEWFSESGFEERIKDRGLLIKGWAPQMLILSHHSVGGFLTHCGWNSTLEGLTAGLPLLTWPLFADQFCNEKLAVQVLKAGVSAGVDQPMKWGEEEKIGVLVDKEGVKKAVEELMGESDDAKEIRRRAKELGELAHKAVEEGGSSHSNITSLLEDIMQLAQSNN
Mogroside IA: 1764000 | Mogroside IE: not detected

B2: SEQ ID NO. 1062/1063: glycosyltransferase (DNA/protein SEQ ID NO) producing mogroside I from mogrol (protein, listed as Barbarea vulgaris)
chain: MASITNHKSDPLHFVLFPFMAQGHMIPMVDIARLLAQRGLTITIVTTPHNASRFKNVLNRAIESGLPINILHVKLPYQEVGLPEGLENIDCFDSMEHMIPFFKGVNMVEESVQKLFEEMSPRPSCIISDFCLPYTSKVAKKFNIPKILFHGMCCLCLLCMHVLRKNPKILENLKSDKEHFVVPYFPDKIELTRPQVPMDTYVPGELKEFMEDLVEADKTSYGVIVNTFQELEPAYVKDYKETRSGKAWSVGPVALCNKARIDKAERGNKSDIDQDECLKWLDSKEERSVLYVCLGSICNLPLAQLKELGLGLEESTRPFIWVIRGWDKNKQLVEWFSESGFEERIKDRGLLIKGWSPQMLILSHQSVGGFLTHCGWNSTLEGITAGLPLLTWPLFADQFCNEKLVVQVLNSGVRAGVEQPMKWGEEEKIGVLVDKEGVKKAVEELMGESDEANERRRRAKELGELAHKAVEEGGSSHSNITFLLQDIMQLAQSNN
Mogroside IA: 1816000 | Mogroside IE: not detected

B3: SEQ ID NO. 1066/1067: glycosyltransferase (DNA/protein SEQ ID NO) producing mogroside I from mogrol (protein, listed as Barbarea vulgaris)
chain: MASITNHKSDPLHFVLFPFMAQGHMIPMVDIARLLAQRGLTITIVTTPHNASRFKNVLNRAIESGLPINILHVKLPYQEVGLPEGLENIDCFDSMEHMIPFFKGVNMVEESVQKLFEEMSPRPSCIISDFCLPYTSKVAKKFNIPKILFHGMCCLCLLCMHVLRKNPKILENLKSDKEHFVVPYFPDKIELTRPQVPMDTYVPGELKEFMEDLVEADKTSYGVIVNTFQELEPAYVKDYKETRSGKAWSVGPVALCNKARIDKAERGNKSDIDQDECLKWLDSKEERSVLYVCLGSICNLPLAQLKELGLGLEESTRPFIWVIRGWDKNKQLVEWFSESGFEERIKDRGLLIKGWSPQMLILSHQSVGGFLTHCGWNSTLEGITAGLPLLTWPLFADQFCNEKLVVQVLNSGVRAGVEQPMKWGEEEKIGVLVDKEGVKKAVEELMGESDEANERRRRAKELGELAHKAVEEGGSSHSNITFLLQDIMQLAQPITEPSFLVQSWHYKKALLINLLQRTGHYQSK
Mogroside IA: 562100 | Mogroside IE: not detected

B4: SEQ ID NO. 1050/1051: glycosyltransferase (DNA/protein SEQ ID NO) producing mogroside I from mogrol (protein, listed as Bacillus licheniformis)
chain: MRHKHIAIFNIPAHGHINPTLALTASLVKRGYRVTYPVTDEFVKAVEETGAEPLNYRSTLNIDPQQIRELMKNKKDMSQAPLMFIKEMEEVLPQLEALYENDKPDLILFDFMAMAGKLLAEKFGIEAVRLCSTYAQNEHFTFRSISEEFKIELTPEQEDALKNSNLPSFNFEDMFEPAKLNIVFMPRAFQPYGETFDERFSFVGPSLAKRKFQEKETPIISDSGRPVMLISLGTAFNAWPEFYHMCIEAFRDTKWQVIMAVGTTIDPESFDDIPENFSIHQRVPQLEILKKAELFITHGGMNSTMEGLNAGVPLVAVPQMPEQEITARRVEELGLGKHLQPEDTTAASLREAVSQTDGDPHVLKRIQDMQKHIKQAGGAEKAADEIEAFLAPAGVK
Mogroside IA: 2700609 | Mogroside IE: not detected

B5: SEQ ID NO. 1064/1065: glycosyltransferase (DNA/protein SEQ ID NO) producing mogroside I from mogrol (protein, listed as Barbarea vulgaris)
chain: MASAKLHQFHPSLHFVLFPFMAQGHMIPMIDIARLLAQRGVTITIVTTLHNSARFRNVLSRAIESGLPINLVHVKFPYQEAGLPEGQENIDSLDSKELTVPFFKAVNMLEEPVMKLMEEMKPRPSCLISDLCLPYTSKIAKKFNIPKIVFHGMGCFCLLCMHVLRRNLEILQNLKSDKEYFWIPNFPDRVEFTKPQVPVRINASGDWKVFLDEMVKAEETSYGVIVNTFQELEPAYVKDFQEARAGKVWSIGPVSLCNKIEADKAERGNKAAIDQDECLKWLDSKEGGSVLYVCLGSICNLPLVQLIELGLGLEESQRPFIWVIRGWEKYNELSEWISESGFEERVKDRGLLIRGWAPQVLILSHPSVGGFLTHCGWNSTLEGITSGVPLLTLPLFGDQFCNQKLIVQVLKVGVSAGVEEVMGWGEEEKIGVLVDKERVKKTVEEVMGESDDAKERRRRVKELGKLAHKAVEEGGSSHSNITLFLQDMCQLQSVGIY
Mogroside IA: 76330 | Mogroside IE: 13290

B6: SEQ ID NO. 1068/1069: glycosyltransferase (DNA/protein SEQ ID NO) producing mogroside I from mogrol (protein, listed as Barbarea vulgaris)
chain: MVSEITHKSYPLHFVLFPFMAQGHMIPMVDIARLLAQRGVKITIVTTPHNAARFKNVLSRAIESGLPISIVQVKLPSQEAGLPEGNETLDSLVSMELMIHFLKAVNMLEEPVQKLFEEMSPQPSCIISDFCLPYTSKIAKKFNIPKILFHGMCCFCLLCMHILRKNREIVENLKSDKEHFVVPYFPDRVEFTRPQVPVATYVPGDWHEITEDMVEADKTSYGVIVNTYQELEPAYANDYKEARSGKAWTIGPVSLCNKVGADKAERGNKADIDQDECLKWLNSKEEGSVLYVCLGSICNLPLSQLKELGLGLEESQRPFIWVIRGWEKNKELHEWFSESGFEERIKDRGLLIKGWAPQMLILSHHSVGGFLTHCGWNSTLEGLTAGLPLLTWPLFADQFCNEKLAVQVLKAGVSAGVDQPMKWGEEEKIGVLVDKEGVKKAVEELMGESDDAKEIRRRAKELGELAHKAVEEGGSSHSNITSLLEDIMQLAQSNN
Mogroside IA: 1315000 | Mogroside IE: not detected

B7: SEQ ID NO. 1058/1059: glycosyltransferase (DNA/protein SEQ ID NO) producing mogroside I from mogrol (protein, listed as Barbarea vulgaris)
chain: MASETTHQFHSPLHFVLFPFMAQGHMIPMVDIARILAQRGVTITIVTTPHNAARFKNVLSRAIQSGLPINLVQAKFPSQESGSLEGHENLDLLDSLGASLTFFKATNMFEKPVEKLLKEIQPRPSCIIGDMCLPYTNRIAKNLGIPKIIFHGMCCFNLLCMHIMRQNYEFLETIDSEKEYFPIPNFPERAEFTKSQLPMITYAGEFKEFLDEVTEGDNTSYGVIVNTFEELEPAYVRDYKKVKAGKVWSIGPVSLCNKVGEDKAERGNKAAIDQDECIKWLDSKEEGSVLYVCLGSICNLPLSQLKELGLGLEESQRPFIWVIRGWEKYNELAEWISESGFKERIKERGLLIRGWSPQMLILSHPAVGGFLTHCGWNSTLEGITSGVPLLTWPLFGDQFCNEKLVVQVLKVGVRSGVEESMKWGQEENIGVLVDKEGVKKAVEEVMGESDDAKERRRRVKELGQLAHKAVEEGGSSHSNITSLLQDIRQLQSKK
Mogroside IA: 261900 | Mogroside IE: 104300

B8: SEQ ID NO. 1060/1061: glycosyltransferase (DNA/protein SEQ ID NO) producing mogroside I from mogrol (protein, listed as Barbarea vulgaris)
chain: MASESCHHSHCPLHFVLFPFMAQGHMIPMVDIARLLALRGATITIVTTPHNATRFNNLLSRAIESDLSINIVHVNFPYQEAGLSEGQENVDLLESMGLMVPFLKAVNMLEEPVMKLMEEMKPRPSCLISDFCLHYTSKITKKFNIPKIVFHGMGCFCLLCMHVLRRNIEILKNLKSDKEYFLVPSFPDIVEFTKPQVPVETNASGDWKEFLEAMVEAEDTSYGVIVNTFQELEPAYVKDYKEARAGKVWSIGPVSLCNKIEADKAERGNKAAIDQEECLKWLDSKEEGSVLYVCLGSICNLPLAQLKELGIGLEESQRPFIWVIRGWEKYNELSEWMLESGFEERVKDRGLLIKGWSPQMLVLSHPSVGGFLTHCGWNSTLEGITSGVPLLTWPLFADQFCNEKLVVQVLKVGVRAGVEDPMSWGEEEKVGVLLDKEGVKKAVEELMGESDDAKERRKRVKELGELAHKAVEEGGSSHSNITLFLQDISQYKSVGTF
Mogroside IA: 696200 | Mogroside IE: not detected
